Reference: publication PMC6274722
deuterohemin = iron-porphyrin joined to the peptide N-terminus

Target: amyloid β 1-42 peptide (Aβ1-42) (UniProt P05067)

particle size (DLS, five days) and morphology (TEM, three days) of Aβ1-42 incubated with DhHP-6 at 10 μM:10 μM, 37 °C: 396 nm
Binder: deuterohemin-AHTVEK-NH2 (also: His2 imidazole is the fifth ligand of the deuterohemin iron) [Deuterohemin-AlaHisThrValGluLys (DhHP-6)]
